Measurements taken from publication PMC10387068.

Legend:
[1] = target: heterotrimeric Gq 4A (Gαq 4A with Venus(1-155)-β1 and Venus(156-239)-γ2), P50148;P62873;P59768; assay: BRET assay (receptor-Nluc and Venus-tagged βγ subunits); details: values normalized to cells transfected with the same FZD5-Nluc construct but no Gq 4A; parent: est. 111; read off a plot
[2] = target: DEP-Venus (isolated DEP domain of human DVL2 tagged with mVenus) (UniProt O14641); assay: direct BRET titration; details: HEK293A cells, constant receptor-Nluc plasmid, increasing DEP-Venus plasmid, read off a plot; for other: BRETmax: parent: est. 0.23; for other: log BRET50: parent: est. 2.6

Substance	response [1]	other: BRETmax [2]	other: log BRET50 [2]
FZD5-Nluc (wild-type human Frizzled-5, C-terminally tagged with Nanoluciferase) (from UniProt Q13467) M7×44A	107 % BRET	0.22	2.2
FZD5-Nluc (wild-type human Frizzled-5, C-terminally tagged with Nanoluciferase) (from UniProt Q13467) L5×62A	113 % BRET	0.24	2.4
FZD5-Nluc (wild-type human Frizzled-5, C-terminally tagged with Nanoluciferase) (from UniProt Q13467) F4×45A	102 % BRET	0.14	3.1
FZD5-Nluc (wild-type human Frizzled-5, C-terminally tagged with Nanoluciferase) (from UniProt Q13467) Y6×51A	106 % BRET	0.2	2.5
FZD5-Nluc (wild-type human Frizzled-5, C-terminally tagged with Nanoluciferase) (from UniProt Q13467) C2×50A	101 % BRET	0.12	2.8
FZD5-Nluc (wild-type human Frizzled-5, C-terminally tagged with Nanoluciferase) (from UniProt Q13467) Y2×51A	101 % BRET	0.15	2.7
FZD5-Nluc (wild-type human Frizzled-5, C-terminally tagged with Nanoluciferase) (from UniProt Q13467) T1×50A	111 % BRET	0.22	3.2
FZD5-Nluc (wild-type human Frizzled-5, C-terminally tagged with Nanoluciferase) (from UniProt Q13467) Y6×53A	100 % BRET	0.13	3.1
FZD5-Nluc (wild-type human Frizzled-5, C-terminally tagged with Nanoluciferase) (from UniProt Q13467) F3×29A	108 % BRET	0.19	2.5
FZD5-Nluc (wild-type human Frizzled-5, C-terminally tagged with Nanoluciferase) (from UniProt Q13467) G5×58A	106 % BRET	0.21	2.5
FZD5-Nluc (wild-type human Frizzled-5, C-terminally tagged with Nanoluciferase) (from UniProt Q13467) M6×30A	111 % BRET	0.21	3.2
FZD5-Nluc (wild-type human Frizzled-5, C-terminally tagged with Nanoluciferase) (from UniProt Q13467) M3×37A	103 % BRET	0.16	3
FZD5-Nluc (wild-type human Frizzled-5, C-terminally tagged with Nanoluciferase) (from UniProt Q13467) L3×52A	103 % BRET	0.18	2.8
FZD5-Nluc (wild-type human Frizzled-5, C-terminally tagged with Nanoluciferase) (from UniProt Q13467) W7×55A	111 % BRET	0.19	3.4
FZD5-Nluc (wild-type human Frizzled-5, C-terminally tagged with Nanoluciferase) (from UniProt Q13467) W3×43A	108 % BRET	0.22	2.6
FZD5-Nluc (wild-type human Frizzled-5, C-terminally tagged with Nanoluciferase) (from UniProt Q13467) V45×52A	105 % BRET	0.19	2.5
FZD5-Nluc (wild-type human Frizzled-5, C-terminally tagged with Nanoluciferase) (from UniProt Q13467) L5×48A	102 % BRET	0.16	2.7
FZD5-Nluc (wild-type human Frizzled-5, C-terminally tagged with Nanoluciferase) (from UniProt Q13467) R6×32A	106 % BRET	0.15	4.1
FZD5-Nluc (wild-type human Frizzled-5, C-terminally tagged with Nanoluciferase) (from UniProt Q13467) W8×54A	105 % BRET	0.19	2.9
FZD5-Nluc (wild-type human Frizzled-5, C-terminally tagged with Nanoluciferase) (from UniProt Q13467) G5×65A	115 % BRET	0.25	2.4
FZD5-Nluc (wild-type human Frizzled-5, C-terminally tagged with Nanoluciferase) (from UniProt Q13467) T1×53A	106 % BRET	0.19	3.1
FZD5-Nluc (wild-type human Frizzled-5, C-terminally tagged with Nanoluciferase) (from UniProt Q13467) L6×52A	109 % BRET	0.22	2.7
FZD5-Nluc (wild-type human Frizzled-5, C-terminally tagged with Nanoluciferase) (from UniProt Q13467) Y2×39A	108 % BRET	0.17	3.4
FZD5-Nluc (wild-type human Frizzled-5, C-terminally tagged with Nanoluciferase) (from UniProt Q13467) W6×61A	102 % BRET	0.14	2.7
FZD5-Nluc (wild-type human Frizzled-5, C-terminally tagged with Nanoluciferase) (from UniProt Q13467) V3×44A	107 % BRET	0.2	2.5
FZD5-Nluc (wild-type human Frizzled-5, C-terminally tagged with Nanoluciferase) (from UniProt Q13467) G6×34A	108 % BRET	0.23	2.4
